Experimental data as given in publication PMC3936742 (Nucleic Acids Research, 2013).

Biological target: T1, Flag-MnmC(o), C-terminal oxidoreductase domain of MnmC (amino acids 250-668) (E. coli, UniProt P77182 250-668)
T1 sequence (looked up): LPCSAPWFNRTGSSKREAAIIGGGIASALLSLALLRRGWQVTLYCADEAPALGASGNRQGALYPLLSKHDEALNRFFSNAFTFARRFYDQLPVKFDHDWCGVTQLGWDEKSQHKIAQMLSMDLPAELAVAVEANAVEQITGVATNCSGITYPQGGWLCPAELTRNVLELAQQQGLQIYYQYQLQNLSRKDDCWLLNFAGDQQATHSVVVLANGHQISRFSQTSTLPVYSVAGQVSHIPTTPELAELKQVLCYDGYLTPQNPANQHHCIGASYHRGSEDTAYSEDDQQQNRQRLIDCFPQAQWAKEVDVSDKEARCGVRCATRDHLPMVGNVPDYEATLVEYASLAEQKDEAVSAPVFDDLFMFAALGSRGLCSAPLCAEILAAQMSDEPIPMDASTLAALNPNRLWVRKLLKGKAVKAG
Experiment: SPR; His-MnmC(m) captured (~600 RU) on anti-His monoclonal antibody coupled to a CM-5 chip; Flag-MnmC(o) at various concentrations in TBS buffer, 30 µl/min, 25°C; apparent equilibrium constant
Conditions: both partners purified

Kd: 87 ± 15 nM
B1: His-MnmC(m), MnmC(m) domain fused at its N-terminal end to a 6x-His-epitope (domain or fragment, E. coli, UniProt P77182 1-250, looked up)
chain: MKHYSIQPANLEFNAEGTPVSRDFDDVYFSNDNGLEETRYVFLGGNQLEVRFPEHPHPLFVVAESGFGTGLNFLTLWQAFDQFREAHPQAQLQRLHFISFEKFPLTRADLALAHQHWPELAPWAEQLQAQWPMPLPGCHRLLLDEGRVTLDLWFGDINELTSQLDDSLNQKVDAWFLDGFAPAKNPDMWTQNLFNAMARLARPGGTLATFTSAGFVRRGLQDAGFTMQKRKGFGRKREMLCGVMEQTLPL
